In the supplement of paper PMC10567573 one finds protein stability index data, which are given here for 94 variants.

B1: MLL5 (parent)
chain: HDDGYMICCDKCSVWQHIDCMGID
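Also: lentivirally expressed fusions sorted by FACS into six bins by GFP to DsRed ratio, PSI derived from sequencing read proportions per bin multiplied by bin number.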

Variants of B1 are the subject of the data set. As to the kind of experiment: protein stability index of a GFP-peptide fusion (GPS, HEK-293T) (PSI 1-6); higher = more stable. The conditions noted are these: c terminus: a fixed tail appended.
For the variant HDDGYMICCDKESVWQHIDCMGID [C12E], the protein stability index was found to be 3.63.
The result for HDDGYMICCDKVSVWQHIDCMGID [C12V] reads 1.93.
In the case of HDDGYMICCDKRSVWQHIDCMGID [C12R] it was 2.28; in that of HDDGYMICCDKDSVWQHIDCMGID [C12D], 3.54.
In the case of HDDGYMICCDKCSQWQHIDCMGID [V14Q] it was 2.83.
As for HDDGYMICCDKCSCWQHIDCMGID [V14C], the protein stability index was 2.57.
Take HDDGYMICCDKCSNWQHIDCMGID [V14N]: the protein stability index is 3.05.
Regarding HDLGYMICCDKCSVWQHIDCMGID [D3L], the protein stability index was 1.01.
On to HDMGYMICCDKCSVWQHIDCMGID [D3M], for which the protein stability index worked out at 1.69.
In the case of HDVGYMICCDKCSVWQHIDCMGID [D3V], the protein stability index came to 2.75.
On to HDEGYMICCDKCSVWQHIDCMGID [D3E], for which the protein stability index is 2.95.
In the case of HDDGYMICCDKCSVWQHIDCMGSD [I23S], the protein stability index was determined as 2.58.
As to HDDGYMICCDKCSVWQHIDCMGDD [I23D], the protein stability index was 2.71.
In the case of HDDGYMICCDKCSVWQHIDCMGGD [I23G], the protein stability index came out at 2.95.
HDDGPMICCDKCSVWQHIDCMGID [Y5P]: the protein stability index is 2.9.
In the case of HDDGTMICCDKCSVWQHIDCMGID [Y5T], the protein stability index worked out at 3.96.
In the case of HDDGNMICCDKCSVWQHIDCMGID [Y5N], the protein stability index was 3.3.
Turning to HDDGYMICCDKCSVWQHIWCMGID [D19W], the protein stability index came to 1.98.
In the case of HDDGYMICCDKCSVWQHIKCMGID [D19K], the protein stability index turned out to be 2.52.
Consider HDDGYMICCDKCSVWQHIFCMGID [D19F], for which the protein stability index is 1.74.
For HDDGYQICCDKCSVWQHIDCMGID [M6Q], the protein stability index worked out at 2.46.
For the variant HDDGYKICCDKCSVWQHIDCMGID [M6K], the protein stability index was found to be 2.43.
The result for HDDGYVICCDKCSVWQHIDCMGID [M6V] reads 3.1.
For the variant HDDGYWICCDKCSVWQHIDCMGID [M6W], the protein stability index stood at 2.
The result for HDDGYPICCDKCSVWQHIDCMGID [M6P] reads 2.96; that for HDDGYMICCDLCSVWQHIDCMGID [K11L], 2.23; that for HDDGYMICCDYCSVWQHIDCMGID [K11Y], 1.86.
In the case of HDDGYMICCDSCSVWQHIDCMGID [K11S], the protein stability index amounted to 2.68.
For the variant HDDGYMICCDMCSVWQHIDCMGID [K11M], the protein stability index was 1.55.
On to HDDGYMHCCDKCSVWQHIDCMGID [I7H], for which the protein stability index stood at 3.55.
In the case of HDDGYMDCCDKCSVWQHIDCMGID [I7D], the protein stability index came out at 3.42.
The result for HDDGYMLCCDKCSVWQHIDCMGID [I7L] reads 2.06; that for HDDGYMVCCDKCSVWQHIDCMGID [I7V], 2.79; that for HDDGYMICCDKCSVWQHDDCMGID [I18D], 3.71.
In the case of HDDGYMICCDKCSVWQHLDCMGID [I18L] it was 2.28; in that of HDDGYMICCDKCSVWQHADCMGID [I18A], 2.9.
Consider LDDGYMICCDKCSVWQHIDCMGID [H1L], for which the protein stability index was determined as 2.47.
For the variant KDDGYMICCDKCSVWQHIDCMGID [H1K], the protein stability index is 2.95.
In the case of QDDGYMICCDKCSVWQHIDCMGID [H1Q] it was 2.24; in that of MDDGYMICCDKCSVWQHIDCMGID [H1M], 1.57.
In the case of EDDGYMICCDKCSVWQHIDCMGID [H1E] it was 2.5; in that of HDDGYMICCDKCSVWQHIDYMGID [C20Y], 1.68; in that of HDDGYMICCDKCSVWQHIDIMGID [C20I], 2.08.
For the variant HDDGYMICCDKCSVWQHIDEMGID [C20E], the protein stability index stood at 2.29.
For HDDGYMICCDKCSVWCHIDCMGID [Q16C], the protein stability index stood at 2.4.
As for HDDGYMICCDKCSVWTHIDCMGID [Q16T], the protein stability index turned out to be 1.69.
Take HDDGYMICCDKCSVWHHIDCMGID [Q16H]: the protein stability index was found to be 2.48.
As to HDDGYMICCDKCSVWPHIDCMGID [Q16P], the protein stability index is 3.15.
The result for HDDGYMICCDKCSVWQHIDCMRID [G22R] reads 2.43; that for HDDGYMICCDKCSVWQHIDCMSID [G22S], 2.14; that for HDDGYMICCDKCSVWQHIDCMWID [G22W], 2.06.
As to HDDGYMICCDKCSVWQGIDCMGID [H17G], the protein stability index amounted to 2.72.
With HDDGYMICCDKCSVWQSIDCMGID [H17S], the protein stability index worked out at 2.48.
Take HDDGYMICCDKCSVWQAIDCMGID [H17A]: the protein stability index came out at 2.16.
Consider HDDGYMICCDKCSVWQQIDCMGID [H17Q], for which the protein stability index was found to be 2.48.
Turning to HDDGYMICCDKCPVWQHIDCMGID [S13P], the protein stability index worked out at 2.7.
Consider HDDGYMICCDKCTVWQHIDCMGID [S13T], for which the protein stability index was determined as 2.72.
Take HDDGYMICCDKCCVWQHIDCMGID [S13C]: the protein stability index was determined as 3.19.
Regarding HDDGYMICCDKCSVEQHIDCMGID [W15E], the protein stability index was determined as 4.13.
In the case of HDDGYMICCDKCSVTQHIDCMGID [W15T], the protein stability index turned out to be 3.7.
Consider HDDGYMICCDKCSVHQHIDCMGID [W15H], for which the protein stability index came out at 3.93.
Turning to HDDGYMICCDKCSVMQHIDCMGID [W15M], the protein stability index stood at 3.18.
On to HDDGYMICCDKCSVNQHIDCMGID [W15N], for which the protein stability index was 3.79.
In the case of HDDSYMICCDKCSVWQHIDCMGID [G4S], the protein stability index was found to be 2.38.
Turning to HDDYYMICCDKCSVWQHIDCMGID [G4Y], the protein stability index worked out at 2.48.
For the variant HDDQYMICCDKCSVWQHIDCMGID [G4Q], the protein stability index was 2.2.
In the case of HDDTYMICCDKCSVWQHIDCMGID [G4T], the protein stability index was found to be 2.04.
Consider HDDAYMICCDKCSVWQHIDCMGID [G4A], for which the protein stability index came out at 2.04.
Take HEDGYMICCDKCSVWQHIDCMGID [D2E]: the protein stability index amounted to 2.53.
As to HWDGYMICCDKCSVWQHIDCMGID [D2W], the protein stability index stood at 1.84.
As to HNDGYMICCDKCSVWQHIDCMGID [D2N], the protein stability index amounted to 1.71.
HVDGYMICCDKCSVWQHIDCMGID [D2V]: the protein stability index amounted to 2.02.
Turning to HKDGYMICCDKCSVWQHIDCMGID [D2K], the protein stability index is 2.69.
Regarding HCDGYMICCDKCSVWQHIDCMGID [D2C], the protein stability index stood at 1.89.
Turning to HDDGYMICCDKCSVWQHIDCMGIR [D24R], the protein stability index was 1.93.
Turning to HDDGYMICCDKCSVWQHIDCMGIL [D24L], the protein stability index is 2.79.
On to HDDGYMICCDKCSVWQHIDCMGIM [D24M], for which the protein stability index is 1.56.
On to HDDGYMICCDKCSVWQHIDCMGIE [D24E], for which the protein stability index is 2.46.
As for HDDGYMICCYKCSVWQHIDCMGID [D10Y], the protein stability index was 2.88.
As to HDDGYMICCCKCSVWQHIDCMGID [D10C], the protein stability index came to 2.71.
With HDDGYMICCNKCSVWQHIDCMGID [D10N], the protein stability index was 2.41.
Turning to HDDGYMICCAKCSVWQHIDCMGID [D10A], the protein stability index amounted to 1.71.
For the variant HDDGYMICCPKCSVWQHIDCMGID [D10P], the protein stability index stood at 2.36.
In the case of HDDGYMICCGKCSVWQHIDCMGID [D10G], the protein stability index worked out at 1.92.
Consider HDDGYMICSDKCSVWQHIDCMGID [C9S], for which the protein stability index was 3.81.
In the case of HDDGYMICTDKCSVWQHIDCMGID [C9T], the protein stability index amounted to 3.75.
Turning to HDDGYMICHDKCSVWQHIDCMGID [C9H], the protein stability index turned out to be 2.86.
In the case of HDDGYMICCDKCSVWQHIDCLGID [M21L] it was 2.34.
Consider HDDGYMICCDKCSVWQHIDCAGID [M21A], for which the protein stability index came to 2.94.
In the case of HDDGYMICCDKCSVWQHIDCWGID [M21W] it was 2.03.
For the variant HDDGYMIACDKCSVWQHIDCMGID [C8A], the protein stability index was 3.27.
Turning to HDDGYMIGCDKCSVWQHIDCMGID [C8G], the protein stability index was found to be 2.59.
With HDDGYMIDCDKCSVWQHIDCMGID [C8D], the protein stability index turned out to be 3.19.
The result for HDDGYMIYCDKCSVWQHIDCMGID [C8Y] reads 2.12.
